Experimental findings from publication PMC6974936 are described below.

The target in assay [1] is N-terminus Huntingtin exon 1 fragment harboring pathological (109Q) polyglutamine repeats, fused with eCFP or eYFP. Put plainly: FRET or BRET; frequency-domain FLIM-FRET (phasor trajectory) in living Neuro2a cells co-expressing 109QHtt-eCFP and 109QHtt-eYFP; aggregated fraction; no peptide. (In general: In BRET a luciferase serves as donor, and the signal depends on an acceptor being close.)

The target is the same in assay [2]. Put plainly: FRET or BRET; frequency-domain FLIM-FRET (phasor trajectory) in living Neuro2a cells co-expressing eCFP (donor) and eYFP (acceptor) fusions; soluble fraction; no peptide.
For assay [3] the target is unchanged. Put plainly: FRET or BRET; frequency-domain FLIM-FRET (phasor trajectory) in living Neuro2a cells co-expressing 109QHtt-eCFP and 109QHtt-eYFP; soluble fraction; cells treated with 8R10Q.
Assay [4] has the same target. Put plainly: FRET or BRET; frequency-domain FLIM-FRET (phasor trajectory) in living Neuro2a cells co-expressing 109QHtt-eCFP and 109QHtt-eYFP; aggregated fraction; cells treated with 8R10Q.

N-terminus Huntingtin exon 1 fragment harboring pathological (109Q) polyglutamine repeats, fused with eCFP or eYFP, sequence (P42858 whole entry, change not shown, the tested form may be a part): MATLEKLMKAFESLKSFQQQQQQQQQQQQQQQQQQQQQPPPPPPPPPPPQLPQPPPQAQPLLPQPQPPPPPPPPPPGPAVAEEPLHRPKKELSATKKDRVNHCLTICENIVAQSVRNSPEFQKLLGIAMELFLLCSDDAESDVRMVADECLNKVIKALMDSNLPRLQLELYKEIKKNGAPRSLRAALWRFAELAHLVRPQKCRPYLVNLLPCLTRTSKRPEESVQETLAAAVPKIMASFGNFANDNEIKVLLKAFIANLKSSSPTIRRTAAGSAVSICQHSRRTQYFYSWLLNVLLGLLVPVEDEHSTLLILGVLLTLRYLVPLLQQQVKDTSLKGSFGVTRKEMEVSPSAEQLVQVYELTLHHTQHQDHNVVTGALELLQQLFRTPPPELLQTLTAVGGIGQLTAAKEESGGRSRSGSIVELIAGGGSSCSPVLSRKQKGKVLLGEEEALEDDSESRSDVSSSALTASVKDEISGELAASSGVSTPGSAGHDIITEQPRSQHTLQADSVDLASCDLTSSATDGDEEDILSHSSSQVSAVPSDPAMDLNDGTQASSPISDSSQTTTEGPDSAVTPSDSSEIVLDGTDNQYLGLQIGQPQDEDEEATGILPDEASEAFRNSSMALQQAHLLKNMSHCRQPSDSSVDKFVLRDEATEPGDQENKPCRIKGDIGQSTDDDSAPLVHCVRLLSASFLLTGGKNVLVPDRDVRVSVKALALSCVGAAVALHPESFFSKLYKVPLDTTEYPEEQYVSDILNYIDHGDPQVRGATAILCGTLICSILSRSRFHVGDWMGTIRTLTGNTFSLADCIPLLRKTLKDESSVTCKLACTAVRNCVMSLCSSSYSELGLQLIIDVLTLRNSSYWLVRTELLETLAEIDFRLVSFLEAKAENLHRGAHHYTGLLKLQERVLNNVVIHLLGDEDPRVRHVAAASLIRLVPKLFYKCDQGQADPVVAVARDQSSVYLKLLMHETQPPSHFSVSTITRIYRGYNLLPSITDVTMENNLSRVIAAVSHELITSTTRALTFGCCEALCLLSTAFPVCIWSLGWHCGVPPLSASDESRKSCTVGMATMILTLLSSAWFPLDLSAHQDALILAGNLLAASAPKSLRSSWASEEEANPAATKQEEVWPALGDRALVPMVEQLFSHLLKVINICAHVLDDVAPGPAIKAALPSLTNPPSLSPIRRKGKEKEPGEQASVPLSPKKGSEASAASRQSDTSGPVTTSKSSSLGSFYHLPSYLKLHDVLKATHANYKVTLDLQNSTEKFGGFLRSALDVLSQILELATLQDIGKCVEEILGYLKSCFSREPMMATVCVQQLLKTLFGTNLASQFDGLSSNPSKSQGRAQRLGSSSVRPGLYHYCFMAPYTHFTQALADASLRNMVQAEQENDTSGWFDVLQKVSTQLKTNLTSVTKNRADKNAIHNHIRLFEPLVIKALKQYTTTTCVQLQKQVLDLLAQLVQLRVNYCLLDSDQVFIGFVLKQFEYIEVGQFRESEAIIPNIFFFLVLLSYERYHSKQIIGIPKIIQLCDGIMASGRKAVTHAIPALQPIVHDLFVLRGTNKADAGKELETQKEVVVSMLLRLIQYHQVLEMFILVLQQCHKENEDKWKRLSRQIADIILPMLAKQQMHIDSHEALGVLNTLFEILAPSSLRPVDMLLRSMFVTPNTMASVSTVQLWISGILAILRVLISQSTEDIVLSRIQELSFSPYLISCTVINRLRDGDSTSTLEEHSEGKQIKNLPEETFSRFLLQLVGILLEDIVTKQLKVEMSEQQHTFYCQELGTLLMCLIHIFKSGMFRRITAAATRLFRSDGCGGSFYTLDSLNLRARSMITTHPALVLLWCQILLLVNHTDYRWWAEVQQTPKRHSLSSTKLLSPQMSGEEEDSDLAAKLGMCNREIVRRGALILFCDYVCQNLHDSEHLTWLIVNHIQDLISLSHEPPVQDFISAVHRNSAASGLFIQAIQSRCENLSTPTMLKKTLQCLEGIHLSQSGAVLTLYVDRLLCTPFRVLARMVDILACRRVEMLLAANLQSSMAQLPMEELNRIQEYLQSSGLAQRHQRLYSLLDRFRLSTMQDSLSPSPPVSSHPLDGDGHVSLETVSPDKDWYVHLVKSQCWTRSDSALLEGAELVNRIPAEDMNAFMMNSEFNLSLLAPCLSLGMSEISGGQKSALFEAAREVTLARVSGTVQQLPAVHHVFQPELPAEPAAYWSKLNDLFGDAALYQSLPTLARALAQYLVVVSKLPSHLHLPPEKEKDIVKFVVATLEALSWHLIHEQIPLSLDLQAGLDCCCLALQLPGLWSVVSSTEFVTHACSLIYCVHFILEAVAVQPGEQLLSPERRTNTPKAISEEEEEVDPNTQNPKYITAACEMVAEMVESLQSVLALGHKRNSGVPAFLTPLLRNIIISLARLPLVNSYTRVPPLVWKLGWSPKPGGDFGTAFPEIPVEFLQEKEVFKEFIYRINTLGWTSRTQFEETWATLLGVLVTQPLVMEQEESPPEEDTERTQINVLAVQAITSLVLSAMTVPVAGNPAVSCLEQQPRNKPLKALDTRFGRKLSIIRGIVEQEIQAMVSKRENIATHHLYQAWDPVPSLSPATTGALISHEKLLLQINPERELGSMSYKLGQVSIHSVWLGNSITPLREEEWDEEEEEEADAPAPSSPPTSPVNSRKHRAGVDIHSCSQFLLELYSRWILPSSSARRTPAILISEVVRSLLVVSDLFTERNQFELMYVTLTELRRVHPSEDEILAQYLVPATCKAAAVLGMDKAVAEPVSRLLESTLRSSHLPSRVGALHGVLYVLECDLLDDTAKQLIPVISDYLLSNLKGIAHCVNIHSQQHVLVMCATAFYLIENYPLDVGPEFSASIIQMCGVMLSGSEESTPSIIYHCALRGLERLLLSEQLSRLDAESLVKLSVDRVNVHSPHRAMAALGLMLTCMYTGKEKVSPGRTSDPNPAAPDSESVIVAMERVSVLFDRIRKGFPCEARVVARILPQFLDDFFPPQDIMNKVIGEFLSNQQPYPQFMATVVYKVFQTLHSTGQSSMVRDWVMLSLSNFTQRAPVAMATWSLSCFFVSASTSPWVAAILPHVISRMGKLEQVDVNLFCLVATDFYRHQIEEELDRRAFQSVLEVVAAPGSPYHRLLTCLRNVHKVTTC

For “N-terminus Huntingtin exon 1 fragment harboring pathological (109Q) polyglutamine repeats, fused with eCFP or eYFP (domain or fragment)”, the values for the FRET efficiency in assay [1] and in assay [2] were 41.8% and 8.7%, respectively. For the same substance, the FRET efficiency with 8R10Q in assay [3] came to 4.5%; in assay [4], 16.4%.
